In the DeepSol protein solubility set:

Assay: soluble on expression in E. coli; label from the status in PepcDB or PDB records

Soluble on expression in E. coli, not soluble:
MGSDKIHHHHHHMFNSERLCIARERRGLTQRALAEAAGLTSKTISNYEKAGIFDAIASDSMERISAVLEYPIEFFLDRDVPSLTPEAVSFRAMTKLSAQKRDSALGAGKLAQELSAWIDGQFKLPKPNVPDSSFDGYSEPERAARTVREAWGIGELSISNIVHLLEANGIRVFSLAENCVEVDAFSFWMDEKPFVLLNTMKTPERSRFDAAHELGHLVLHKHSCNNGRQAEQDADRFASAFLMPERSILASVPRMPRLEQLILLKKNWKVSLAALVRRTFDVGLSTEWHYRQLSIELNRRGYRTGEPQGMPEREKSLILEKVFSALRTQGIKRTEILGQLRFPADEVSALTFNNRFFMEAITGDGPQSYIERKQPPQLSLVK
MGSDKIHHHHHHMFPAGEMFFIESIRNVRNQIKDEKLLEDIKAFIAQEAFHSREHKMLNNHLIHSNYPEVVEIEAQTKARLDKLRQLSAVEQVAATVVMEHYTATLARLLLTDSLIKAKTTQESRNLWEWHALEELEHKSVAFDVLNAIGGNSSKNRKVALARVAKLITPIIFKYWIKILKRKDINFTLKQLKDGIYLGFGGINRVGILSKAFVDMLDVRAENFDPLNMQTEQLEAEFREKLFGQAGFLRDYLS
MGSDKIHHHHHHMFRSMRTSHERVHFTAKARRASTMAAPQNKVIVTCAVTGGIHTPTMSPHLPITARDIEDESVAAAEAGAAIVHLHARKPENGQPSQDPALFLEFLPRIAARSDVVINLTTGGAPNMLVEERLQPALQLKPEVASLNMGSMNFGLYPMIARHKTFKYDWERPYLEGSEDRVFRNTFKEIRYILESCADNGTRFEIECYDTSHLYTAAHFIDRGILKPPFFIQSVFGLLGGIGTHPDDVMHMRRTAERLFGKDYYWSVLGAGRSQMPIASMAAAMGGNVRVGLEDSLWEDRGRLSRSNADQVRRVVGILKSLNLEVATPDEARDMLQLKGRDAVAF
MGSDKIHHHHHHMFSKKVKWEETMTYKSIRALERGIDVLQYLNTVKGAAPPEIAENVNLPRPTVHRILETLSELNLVYRSQLGDEYRLSSGVQRLAGNRSSVRLNWIDEIALPALLELTSEIIWPSDIAVCHKAAMIIQGTTHRISPMSCDVGMVGNRRSMLMSPLGRAYLSHCPDDELKSILCALNASSASEDKGARDRAFIKEIIETGRRDGVSACNERPHPRCASLAAPIRLNGKVLACMNVVWRANMLTIEDAMDQIRDPLLATRDRIEAQLHEQFARPALGSTSFPETYTLRTGTRDRLPHSLALA
MGSDKIHHHHHHMFTQATFDFLAALEANNERDWFKANQHTYEDKVRTPALALIEAAAPAIVALSPRLTAVAKKVGGSLMRPQRDTRFGHDKRPYKTNVGIQFRHFQGKDVHAPGLYLHIANDGCFVAAGIWHPESKALNAIRSCIDENPATYQKALKALTDSGFAMDGDSLSRPPRGYDKRHPLIDELKRKDFIAVKSLTNHEVLQPDFASRLVAEFEHCQQLMRYLCFALELDY
MGSDKIHHHHHHMFVDTTLRDGHQSLIATRMRTEDMLPALEAFDRMNFHSMEVWGGATFDVAVRFLNENPWERLKKIREGLKNTKIQMLLRGQNLVGYRHYADDVVELFIKKVAEYGLDIIRIFDALNDERNLQKSIEESKKHGLHVQVAISYTVSPVHTLDYYLDFARKLLDMGVDSICIKDMAGLLTPKRAYELVRALKEKFGVPVEVHSHCTTGFAPLAYQAAYEAGADFFDTAISPFSMGTSQPTFETMYYAFRGNGKEDFDREALKFLVDHFTKVRMKYIEYDVGMKYPDSRIIFSQIPGGMYSNLLKQLKEQRMEHLLDKVLEEVPRVQKDLGYPPLVTPTSQIVGVQAFLNVVYGRYERITNETRNYVKGLYGRPPAPIDPELMRKILGDEKPIDCRPADLLEPELDKTRKELGILVETDEDLLIAVILGEVGKKFLRKKYEEKIGVDFNYLESLSDFTDDMPVYPV
MGSDKIHHHHHHMFVEACGRLVLIRKIYGLVKVFMVKKTIRYMRISLMLTNDAIFTTRLQKGGALLDDMRQLVCQWTEAVAKPESQAGEILHKATRSRVADTYRRAFLPRFLKGSPQDAWKLARALEEAHPSIEIIRPFYYWITARAEPILYAYVTEELVEKAKTSDRAVRTEETASWINNTLRSCGRVWSPTVQLKVARGILAALRDFAILEGAVNKRLVHGHLPIETFCLIAFLLNLMGIGARELVEHSDWKLFLLAGPEVERLFFEAHQHGWLHYQAAGRVHRIEFPTNDFKDYIRVIFGTES
MGSDKIHHHHHHMGAKKNFVLDTNVILHDYKCIENFQENDIYLPIVVLEELDKFKKGSEQINYNAREFVRELDLLTSNDLFLKGASLGPGKGTLYIVTGDKYQEKIAHSFPDKTPDHRILSCALTIAEKNPKIKTTLVSKDVNLRMKARSLGIPVEDYITDKVVNVDIFERAQETYENIDPDLIDKIYSSPEGVDADSLDIKSKLDPNECFILKSVRNSVLARYNPFTDKIKKVDKGTNFGIQPRNAEQSFAFEVLNDPNIKLVGLTGKAGTGKTLLALASALKQAGTYKQILLARPIVALANKDLGFLPGDEKQKVAPYMQPLFDNLNVIKTQFAPGNPDVRKIDDMQKNNQLVIEALAFIRGRSLSETYCIIDEAQNLTPHEIKTIITRAGEGTKMVFTGDIQQIDSPYLDAQSNGLAYMIDKMKGQDLFAHINLIKGERSELSELASDLL
MGSDKIHHHHHHMGDSMSLDWDKLRIFHAAAEAGSFTHAADKLHLSQSAISRQVSSLEQDVGIKLFHRHARGLILTEQGEMLYRTAHDVLMKLESVKAQLSETTDKPSGKLRITTTVGLGQGWLTDKIQEFMSLYPEIQVQLILDNEELDVNMRHADCAIRLRQPQQSDLIQRKLFTVHMHVYAAPSYINKYGEPQSLDDLDNHRIITFGEPAPNYLLDVNWLEIAGRDSDNPRISHLQINSQTSIKRACLLGIGIAMLPDYIVGRDPGLIQLPISADIPSFDTYFCYPDELKNAAKLKVFRDYIVAKARNWNF
MGSDKIHHHHHHMGIPKRKLGERGPEVSAIGLGCMRMSFGQKKLPDRKEMIKLIRTAVELGINFFDTAEVYGPYTNEELVGEALEPFKGEVVIATKFGFELYEDGRPGWKGLNSNPEHIKKAVEGSLRRLRVEAIDILYQHRVDPNVPIEEVAGAVKELIEEGKVKHFGLCEASAETIRRAHKVCPVDVVQYEYSMWWRKPEEELLPTCEELGIGFVAYSPLGKGFLTGAIGENSKFDEEDSRSRIPRFQKENLRENLALVELRKTIAERKGATPSQIALAWLLAQKPWIVPIPGTTKLSHLLENIGGAFVELTPEELQEINDALSRIEIKGSRYPEDMEKMTYL
MGSDKIHHHHHHMGIRILNDLMLDKSALLFGVSKYLEKGIITGNILIHKSLLAELEKESNDGLVSAEIALDEVKKLKDITERILVNFEIVGENSKKGEANELSREYCLEKGCIMVTADETQKKICDVMGIQYSFLQPLEQSLSFESFFDDETMSLHIKEDTVPRAKKGKPGNWKFVNLSNKPMLSVDVKRIANEIINGVRFIKGSFIEIERKGSLIIQLGNYRVVITRPPLSDGWEITITRPVVRKRLEDYGLDERLIKRLEERAEGIIIAGAPGMGKTTFAQALSEYYMRLGKIVKTIESPRDMHLPPEITQYSKNYAEIGELHDILLLSRPDYTVYDEMRNDEDFKLYIDLRLAGIGMVGVVHATSPIDAIHRFVNRVDIGTIPNILDTIIFINSGNVSKVYTLEITVKVPAGLKEADLARPVVEIKDLVTGNTEYEIYVFGEQTMIVPVNRGITLNNMEFKISKIVNNIIPKATVKYEDGEYVIVIPKEEIGKYNRKLVQRLKRLEKKNNIKIKIKLSD
MGSDKIHHHHHHMGNKTSQKVLLELLKDRDRWVSGNEIADSLGVTRETIWKNINLLKKRGHQIQSQKNLGYKYESSSKLDEVVINFYKNKSVDHVAVEEQVDSTQMYAKNYLATHQVEKAFAVISEQQTQGYGRRGRSFYSPKEQGLYFSIVIPKPTFEINQVGLITTGVAYVIAQTFKDFFPEREFKLKWVNDILMNRRKVAGIITEAITEVESASTQAFVIGVGINLTTPEFPEELQQKAGAIVAKNEPNIDRNLIAAQLINTIVDNWQNYLDGSFLSEYRRMSIVIGKPVTLQVGTKQVKGIATDINEYGNIVVKLDDGQVKAFNNGEITKVNLDW
MGSDKIHHHHHHMHFTPALKPGKLLKRYKRFLADVQLEDGSEITVHCPNTGSMRNCLFPGETLWFSTSSNTKRKYAHTWELMTTPTGALIGIHSGNANALVEEALNKGIITELTGYDSLRREVKYGDENSRIDILLECAQKTACYIEVKSCTLQENGQGYFPDAVSLRGQKHLRELMHMASLGHRAVLLFVVQHTDIMSVAPAAHIDPEYANLLKKSVLSGVEVLAYRCEISPSEIHLAQSCPVRV
MGSDKIHHHHHHMHIAIMSRNKNLYSTSRLKEAAEARGHVIKIVDPLKCYMNINMNAPSIHVRGEELPKFDAVIPRIGASVTFYGTAVLRQFEMMGTHPLNESVAITRSRDKLRSLQLLSRKNIGLPVTGFASKPADIPDLLDMVGGAPCVIKLLEGTQGIGVVLAETRKAAESVIEAFMGLKANIMVQEYIAEAGGADIRCFVIGDKVIAAMKRQALPGEFRSNLHRGGSASIVKLTPEERSTALRAAKTMGLNVAGVDILRSKHGPLVMEVNSSPGLEGIEKATGIDVAEKIIQFIEKNVKSTSSKTKGVG
MGSDKIHHHHHHMHLLFVTSIVPDGALASGYEIANAAIIAALRRAGARVTVIGFTWPGKVTADPENTVVLGEIDVRTESASALRKLAWVRKAMLSGLTFASVKLRAVSEHEVEAALEQAGPFDGYVLNSVQFAGAFEKLFEDKPSIFVAHNVEHLSARENEAAAGGVFQRLLFRREARLLKVVEERLCRRARFVFTLAEEDRAALGVASNDRSAVLPLVTGARAPVRNGPRRIDCDAALIGTWTWQPNRIGLDWFLGKVVPHLRPGFRIRIAGHMPSGVTSAHPGVEFVGRVADARAFVCGAAVIPLISTAGSGVQLKTIETFELGLPSVATSRSLRGIGHRPDNCVVTDDPAGFARALEAAAADIRDVDGGAFYRQQVKALDAAIRYGLSKLGAVRQEVLA
MGSDKIHHHHHHMHYDHVLDKRMLRRSFEQAAAGYDQSAVLQREICDRMLSRLEYIKYVPARILDAGSGTGYGTRKLIERYPAAEIMPMDIALTMHRCARMAISEQIPGWQRWLPFRRHWPRDYICADIEQLPLGEASIGMIWSNLAIQWCNDLRQTFAEAYRVLENGGLLMFSTFGPDTLKELRQAFKSADSFSHVNRFTDMHDIGDMLVNCGFSLPVMDMEYITLTYEDVRGVMQDLKAIGARNVTQGRRRGLTGKAAWQQVIERYEALRQDGRLPATYEVVYGHAWKPESRQVQLKPETRRKLGLEP
MGSDKIHHHHHHMHYRQYGRTGRLISRFSLGLMRCLDSAAQLEAVLDAAWRLGINHFETAQSYGPSEAYLAQALHSLQLPRDQVIITTKILPDRDPQQMVEAVLRSRDRLGIDSIDCLALHGLNQPEHLQQAIAALPALQTLQAEGVFQHLGFSSHGDRELILEAIATDAFDFVSLHYYLLFQRHAPVIEAAAAKNLGIFIISPVDKGGLLHQPSAQLIEDCQPFSPLALNYRFLLSDRRITTLSFGAAKAEELAVLQDFVDADQPLSLEEAEAIARLEQVRQQRLGRDYCQQCYACLPCPEAINIPEVLRLRNLAIAHDMQAYGRYRYRMFENAGHWFPGQRGSRCTDCGDCLPRCPHHLPIADLVRDADQRLAGAPRRRLWGD
